The record followed here is PMC4661386 (2015).

In experiment [1] the target is T1, Full-length human TSG-6 (rhTSG-6), wild type (human, UniProt P98066 18-277). The experiment can be described thus: SPR; + 10 mM EDTA.
For experiment [2], the target named is T2, CUB_C (CUB module and C-terminal peptide from human TSG-6), wild type (human, UniProt P98066 128-277).
T2 chain: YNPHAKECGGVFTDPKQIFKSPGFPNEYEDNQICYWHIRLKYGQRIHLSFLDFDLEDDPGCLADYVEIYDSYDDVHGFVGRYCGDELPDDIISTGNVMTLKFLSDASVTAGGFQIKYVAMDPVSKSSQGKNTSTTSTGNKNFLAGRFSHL
The experiment can be described thus: SPR.

For experiment [3], the target named is T1, Full-length human TSG-6 (rhTSG-6), wild …. The experiment can be described thus: SPR; + 10 mM EDTA. The source holds these as a separate data set. (Surface plasmon resonance follows binding to a sensor surface in real time, without labels.)

B1: Recombinant human heavy chain 1 (rHC1) of inter-alpha-inhibitor, wild type (natural protein)
chain: SKSSEKRQAVDTAVDGVFIRSLKVNCKVTSRFAHYVVTSQVVNTANEAREVAFDLEIPKTAFISDFAVTADGNAFIGDIKDKVTAWKQYRKAAISGENAGLVRASGRTMEQFTIHLTVNPQSKVTFQLTYEEVLKRNHMQYEIVIKVKPKQLVHHFEIDVDIFEPQGISKLDAQASFLPKELAAQTIKKSFSGKKGHVLFRPTVSQQQSCPTCSTSLLNGHFKVTYDVSRDKICDLLVANNHFAHFFAPQNLTNMNKNVVFVIDISGSMRGQKVKQTKEALLKILGDMQPGDYFDLVLFGTRVQSWKGSLVQASEANLQAAQDFVRGFSLDEATNLNGGLLRGIEILNQVQESLPELSNHASILIMLTDGDPTEGVTDRSQILKNVRNAIRGRFPLYNLGFGHNVDFNFLEVMSMENNGRAQRIYEDHDATQQLQGFYSQVAKPLLVDVDLQYPQDAVLALTQNHHKQYYEGSEIVVAGRIADNKQSSFKADVQAHGEGQEFSITCLVDEEEMKKLLRERGHMLENHVERLWAYLTIQELLAKRMKVDREERANLSSQALQMSLDYGFVTPLTSMSIRGMADQDGLKPTIDKPSEDSPPLEMLGPRRTFVLSALQPSPTHSSSNTQRLPDRVTGVDTD
For B1, the equilibrium dissociation constant (Kd) in experiment [1] was found to be 5.1 nM. The koff worked out at 0.0004 s⁻¹ in experiment [2] and 0.0051 s⁻¹ in experiment [3].

For orientation: Kd means the concentration at which binding is half-saturated. A word on the koff: it is the first-order rate constant of dissociation.
